B1: P2-C12: anti-FAM19A5 antibody; VH SEQ ID NO: 155, VL SEQ ID NO: 166 (antibody, V domains shown)
VH: QSLEESGGRLVTPGTPLTLTCTVSGFSLSTYAVTWVRQAPGKGLEWIGYINWRGGTSYANWAKGRFTISKTSSTTVDLKMTSPTTEDTATYFCARDASSGAAFGSYGMDPWGPGTLVTVSS
VL: ELDMTQTPSSVSAAVGGTVTIKCQASQSISSYLSWYQQKPGQPPKLLIYEASKLASGVPSRFSGSGYGTEFTLTISDLECADAATYYCQQGYSSTNVWNAFGGGTNVEIK
modifications: P2-C12 VH; P2-C12 VL
B2: 13B4: anti-FAM19A5 antibody; VH SEQ ID NO: 156, VL SEQ ID NO: 167 (antibody, V domains shown)
VH: QVQLQESGPGLVKPSGTLSLNCAVSGGSISSSNWWSWVRQPPGKGLEWIGEIYHGGTTNYNPSLKGRVTMSVDKTKNQFSLRLSSVTAVDTAVYYCARWQLVGGLDVWGQGTTVTVSS
VL: SYELTQPLSVSVSPGQTASITCSGDKLGNVYASWYQQKPGQSPTLVIYQDNKRPSGIPERFSGSNSGKTATLTISGTQALDEADYYCQAWDSSTAVFGGGTKLTVL
modifications: 13B4 VH; 13B4 VL
B3: 13F7: anti-FAM19A5 antibody; VH SEQ ID NO: 157, VL SEQ ID NO: 168 (antibody, V domains shown)
VH: QVQLQEWGAGLLKPSETLSLTCAINAESFNGYSWTWIRQTPGKGLEWIGEISHFGSANYNPSLKSRATISADKSKNQFSLKLTSVTAVDTAVYYCARALRGTYSRFYYGMDVWGQGTTVTVSS
VL: DIVMTQTPLSLPVAPGEPASISCRSSQSLLHSNGYNYLDWYVQKPGQPPQLLIYLGSNRASGVPDRFSGSGSGTDFTLKISRVEAEDVGVYYCMQARQTPLTFGGGTKVEIK
modifications: 13F7 VH; 13F7 VL
B4: 15A9: anti-FAM19A5 antibody; VH SEQ ID NO: 158, VL SEQ ID NO: 169 (antibody, V domains shown)
VH: QVQLQESGPGLVKPSETLSLTCTVSGGSISSYYWSWIRQPPGKGLEWIGYIYPSGSTNYNPSLKSRVTISVDTSKNQFSLNLKSVTAVDTAVYYCARVNPFGYYYAMDVWGQGTTVTVSS
VL: DIQMTQSPSSLSASVGDRITISCRASQSISTSLNWYQQTPGKAPRLLIYGASTLQSGVPSRFSGGGSGTDFSLTITSLQPEDFATYYCQESASIPRTFGQGTKLDIK
modifications: 15A9 VH; 15A9 VL
B5: P2-A03: anti-FAM19A5 antibody; VH SEQ ID NO: 163, VL SEQ ID NO: 174 (antibody, V domains shown)
VH: QSVEESGGRLVTPGTPLTLTCTVSGFSLNNYDMSWVRQAPGKGLEYIGFMDTDGSAYYATWAKGRFTISRTSTTVDLKMTSPTTEDTATYFCARRGSSYYGGIDIWGPGTPVTVSL
VL: ELDLTQTPASVSEPVGGTVTIKCQASQSIGGNLAWYQQKPGQPPKLLIYRASTLASGVPSRFKGSGSGTDFTLTISDLECADAATYYCQSPAYDPAAYVGNAFGGGTELEIL
modifications: P2-A03 VH; P2-A03 VL
B6: P2-F11: anti-FAM19A5 antibody; VH SEQ ID NO: 165, VL SEQ ID NO: 176 (antibody, V domains shown)
VH: QEQLVESGGRLVTPGTTLTLTCTVSGFSLSSYGVSWVRQAPGKGLEWIGYIANNYNPHYASWAKGRFTISKTSSTTVDLKMTSLTTEDTATYFCARDNYGMDPWGPGTLVTVSS
VL: ELDLTQTPSSVSAAVGGTVTINCQASQSVYNNKNLAWYQQKPGQPPKLLIYAASTLASGVSSRFKGSGSGTQFTLTISDVQCDDAATYYCQGEFSCSSADCNAFGGGTELEIL
modifications: P2-F11 VH; P2-F11 VL

Assays:
[1] = system: human FAM19A5 protein epitope fragments F1-F6; test: Epitope mapping: binding to BSA-conjugated FAM19A5 epitope fragments F1-F6 (Western blot / ELISA)
Experimental: (§1) Overlapping peptide fragments (F1-F6 epitope fragments; SEQ ID NOs: 178-183) of the human FAM19A5 protein were synthesized and conjugated to BSA (SEQ ID NOs: 322-327). Binding of the different anti-FAM19A5 antibodies to the BSA-conjugated peptide fragments F1-F6 was determined by Western blot analysis or ELISA assay. For the Western blot analysis, BSA-conjugated FAM19A5 fragments F1-F6 were separated by SDS polyacrylamide gel electrophoresis and transferred to a nitrocellulose membrane by the standard procedure. The membrane was incubated with the anti-FAM19A5 antibody (e.g., 1-65, […], 1-65-scFv-rabbit Fc-SSS), and the antigen-antibody complexes were detected with the appropriate secondary antibody conjugated with horse-radish peroxidase (anti-rabbit IgG (Fc specific)-HRP, 1:4000 dilution). For the ELISA assay, the following protocol was used. FAM19A5 fragment F1-F6 (diluted to 1 μg/mL in 50 mM carbonate buffer (Biosesang) or to 20 μg/mL for high concentration analysis) were used to coat the wells of 96-well immuno plates (Thermo Scientific) (100 μL/well) overnight at 4° C. and then subsequently washed twice in 1×PBS. The plates were then blocked with the blocking buffer (100 μL/well) for 1 hour at room temperature. During the 1-hour incubation, the relavant anti-FAM19A5 antibodies were diluted to 1 μg/mL (or 20 μg/mL for high concentration analysis) in the diluent buffer. Once the plates were washed (2× using 1×PBS), the diluted anti-FAM19A5 antibodies were added to the appropriate wells, and the plates were incubated at room temperature for 1 hour. The plates were subsequently washed for a total of five times using the washing buffer. Next, the ODP substrate (prepared by dissolving one ODP tablet (O-phenylenediamine Dihydrochloride, Thermo) into 9 mL of sterilized deionized water and 1 mL of 10× stable Peroxide Stable buffer (Theromo)) was added to each of the wells, and the color change reaction was allowed to occur for 10 minutes. This reaction was stopped by adding 100 μL of 2N H2SO4 (Daejung) to the wells. The absorption value of each of the wells was detected at 492 nm using a 96-well microplate reader (Molecular Device).

[2] = system: FAM19A5 epitope fragment F5 mutant peptides F5-1 to F5-8; test: ELISA binding to mutant F5 peptide fragments (alanine substitution); set-up: species or system human
Experimental: as §1
Next, to identify the specific amino acid residues within the eptitope fragment F5 that the 1-65 and P2-C12 antibodies bind to, different amino acid residues of the F5 fragment were replaced with alanine as shown in Table 11 (below). The mutated residues are bolded and underlined. The binding affinity of the indicated anti-FAM19A5 antibodies were measured using an ELISA assay as described above.

[3] = target: T1, FAM19A5 mutants M1 to M8 (Homo sapiens, UniProt Q7Z5A7); test: Epitope mapping ELISA with FAM19A5 mutants M1-M8; format: binding
T1 construct: made in house; host or cells: phage display with helper phage
Experimental: (§2) To further characterize the binding epitopes of the anti-FAM19A5 antibodies disclosed in the present disclosure, the amino acid sequences for the different FAM19 family members (i.e., FAM19A1-5) were aligned. […] The amino acid sequences of these regions were replaced with the consensus sequence of the corresponding regions for the FAM19A1-4 proteins. See Table 13 (the mutated amino acid residues are bolded and underlined).
(§3) The mutant FAM19A5-expressing phages were prepared as follows. To prepare the media for phage culture, 55.6 ml of 2M Glucose (D-(+)-Glucose, Sigma), 5 mL of 1M MgCl2 (Magnesium chloride, Junsei) 1 mL of 34 mg/mL chloramphenicol (Sigma) were added to 2×YT media. Colonies obtained through mono-phage ELISA were selected and placed in 5 mL of prepared media (2×YT-GMC) to be cultured for 16 hours at 37° C. with shaking incubator (VS-8480, Vision). 100 μL of each culture was transferred to 10 mL 2×YT-GMC individually which were cultured at 37° C. in the incubator until detection value at O.D. 600 nm reached 0.5. Once detection value has reached 0.5 at O.D. 600 nm, 5 mL of each culture were obtained as samples to be infected. Following sample preparation, 50 μL of […] was added to individual samples then incubated at 37° C. without shaking for 30 minutes and with shaking for additional 30 minutes. Individual cultures were centrifuged for 15 minutes at 3,850 rpm using Micro centrifuge (Micro12, Hanil). The supernatants of centrifuged cultures were removed to be kept separate and replaced with 5 mL of 2×YT media containing 1 mL of IM IPTG (AG Scientific), 5 mL of 1M MgCl2.1 ml of 70 μg/μL kanamycin (Biopure) and 1 mL of Chloramphenicol. The resulting pellets were dispersed thoroughly in newly added media followed by incubation at 30° C. for 16 hours with stirring.

[4] = target: T2, FAM19A5 mutants M1 to M8 (Homo sapiens, UniProt Q7Z5A7, D98Q/K92L/K94R/L100E/P101L/Q95W/T93Q); test: Epitope mapping ELISA with FAM19A5 mutants M1-M8; format: binding
T2 construct: made in house; host or cells: phage display with helper phage
Experimental: as §2, §3

[5] = target: T3, FAM19A5 mutants M1 to M8 (Homo sapiens, UniProt Q7Z5A7, D109K/G107E/I112P/L110T/N113D/R114N); test: Epitope mapping ELISA with FAM19A5 mutants M1-M8; format: binding
T3 construct: made in house; host or cells: phage display with helper phage
Experimental: as §2, §3

[6] = target: FAM19A5 antigen (Homo sapiens, UniProt Q7Z5A7); test: Cross-competition two-site sandwich ELISA; format: binding; details: antibodies 1-65, P2-A03, P2-F11, 13B4, 2-13, 3-2; cross-competition = S/N ratio lower than 2
Experimental: The term “S/N” refers to the signal to noise ratio, which is measured as follows: [O.D. of 10 ng/ml antigen]/[O.D. of 0 ng/ml antigen].
Next, a two-site sandwich ELISA was used as described below to assess whether the different anti-FAM19A5 antibodies with similar binding epitopes cross-compete with each other.
First, the indicated anti-FAM19A5 antibodies were diluted in 1×PBS to a concentration of 10 μg/mL. The diluted anti-FAM19A5 antibodies (10 μg/mL in 1×PBS) (“capture antibody”) were used to coat the 96-well plates (100 μL/well) at 37° C. for approximately 1 hour. After the incubation, the plates were washed with the washing buffer (0.01% Tween-20/PBS; also called 0.01% PBST) for a total of five washes, blocked with the blocking solution (5% BSA/PBS; also called 5% PBSA) (250 μL/well) for one hour at 37° C., and then washed again. Next, 100 μg/mL of the FAM19A5 antigen (diluted in PBS containing 5% BSA, 0.01% Tween-20; also called 5% PBSAT; “diluent buffer) was added to each of the wells, and the 96-well plates were incubated for 2 hours at 37° C. After the incubations, the plates were washed using 0.01% PBST for a total of five washes. After the final wash, the indicated biotinylated anti-FAM19A5 antibodies (“detection antibody”) (diluted to lug/mL in 5% PBSAT) were added to the relevant wells (100 μL volume) and the plates were incubated for an additional 1 hour at 37° C. Afterwards, the plates were washed again with 0.01% PBST (five total washes). Next, 100 μL of the diluted (1/2000 in 5% PBSAT) Streptavidin-HRP (1 mg/mL, Sigma, USA) was added to the wells, and the plates were incubated for 30 minutes at room temperature. The plates were then washed and treated with 100 μL of the TMB substrate ([…], Thermo Fisher Scientific). After an additional 30-minute incubation at room temperature, the color change reaction was induced by the addition of the TMB substrate. This reaction was stopped using 50 μL of sulfuric acid (2N H2SO4), and the extent of color change was detected via absorption at 450 nm with reference wavelength at 620 nm using a 96 well microplate reader (Molecular Device).

T1 sequence (Q7Z5A7 with tags, fused parts or gaps isoform Q7Z5A7-2, change not shown): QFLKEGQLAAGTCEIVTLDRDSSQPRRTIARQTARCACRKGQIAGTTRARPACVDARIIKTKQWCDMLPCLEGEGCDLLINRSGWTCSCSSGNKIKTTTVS
T3 sequence (Q7Z5A7 26-125 isoform Q7Z5A7-2 G100E/D102K/L103T/I105P/N106D/R107N): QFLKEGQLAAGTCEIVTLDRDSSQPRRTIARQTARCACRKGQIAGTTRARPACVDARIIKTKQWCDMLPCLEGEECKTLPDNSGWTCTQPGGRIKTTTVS
FAM19A5 antigen, sequence (Q7Z5A7 44-132): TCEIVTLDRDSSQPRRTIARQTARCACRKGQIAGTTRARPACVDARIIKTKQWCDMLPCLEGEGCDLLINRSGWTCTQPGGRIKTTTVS
T2 sequence (Q7Z5A7 26-125 isoform Q7Z5A7-2 K85L/T86Q/K87R/Q88W/D91Q/L93E/P94L): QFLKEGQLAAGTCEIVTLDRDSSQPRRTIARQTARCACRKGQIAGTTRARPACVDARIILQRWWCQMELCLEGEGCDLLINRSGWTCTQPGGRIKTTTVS

Molecule | binding to the other fragments (F1-F4 and F6) ([1]; ELISA) | binding to epitope fragment F5 ([1]; Western blot and/or ELISA) | binding to F5 mutant peptides #1, 6, and 8 [2] | binding to F5 mutant peptides #2, 3, 4, 5, and 7 [2] | binding to FAM19A5 mutant M8 [3] | binding to FAM19A5 mutant M6 [4] | binding to FAM19A5 mutant M7 [5] | cross-competition with the other anti-FAM19A5 antibodies [6]
B1 | not significantly | strongly | not to mutant peptides #1, 6, and 8 | high binding | strongly binding | failed to bind | – | –
B2 | – | – | – | – | failed to bind | failed to bind | reduced binding | cross-competed with one another
B3 | – | – | – | – | failed to bind | – | reduced binding | –
B4 | – | – | – | – | failed to bind | – | reduced binding | –
B5 | – | – | – | – | failed to bind | – | – | cross-competed with one another
B6 | – | – | – | – | failed to bind | – | – | cross-competed with one another

From patent US20260265360A1, “USE OF ANTI-FAM19A5 ANTAGONISTS FOR TREATING HEARING DISORDERS” (NEURACLE SCIENCE CO., LTD., priority 2023, published 2026)
